# Test results published in article PMC11655906, “Required minimal protein domain of flower for synaptobrevin2 endocytosis in cytotoxic T cells” (Cellular and Molecular Life Sciences: CMLS, 2024).
# “And” between values parts separate entries of the source, which are not always exact repeats. Equal values may be shown once.
# Molecular target: the molecule itself
# Experiment: native gel or EMSA; native PAGE (4-16% Bis-Tris, G-250 additive) of lysates of transfected Fwe KO mouse CTLs (modified RIPA: 50 mM Tris pH 7.5, 50 mM NaCl, 1% Triton-X-100, 1 mM EDTA), western blot with anti-DsRed recognising mTFP; oligomeric state read from band size
row,Protein,stoichiometry N
1,"mouse Flower isoform 2, full-length form, with C-terminal mTFP (mFwe2-mTFP) (natural protein, UniProt Q8BG21-1 1-171, looked up, mouse Flower (Fwe); also called Mouse Flower 2; source: Fwe KO mouse CTLs, transfected with pMAX plasmid, in lysate) MSGSGAAGAAAGPAPPAQEEGMTWWYRWLCRLAGVLGAVSCAISGLFNCVTIHPLNIAAGVWMIMNAFILLLCEAPFCCQFVEFANTVAEKVDRLRSWQKAVFYCGMAIVPIVMSLTLTTLLGNAIAFATGVLYGLSALGKKGDAISYARIQQQRQQADEEKLAETFEGEL",4 and 2
2,"mouse Flower isoform 3 with C-terminal mTFP (mFwe3-mTFP) (natural protein, UniProt Q8BG21-2 1-128, looked up, source: Fwe KO mouse CTLs, transfected with pMAX plasmid, in lysate) MSGSGAAGAAAGPAPPAQEEGMTWWYRWLCRLAGVLGAVSCAISGLFNCVTIHPLNIAAGVWMIMNAFILLLCEAPFCCQFVEFANTVAEKVDRLRSWQKAVFYCGHGEALRGAWPDVRLPNRNTISL",2 and 4 and 6
3,"Drosophila Flower isoform Ubi with C-terminal mTFP (dUbi-mTFP) (natural protein, UniProt Q95T12-1 1-194, looked up, Drosophila Flower (Fwe), ubiquitous splice isoform dUbi; the three Drosophila isoforms are identical in aa 1-146 and differ in the C-terminus; also called dFwe-Ubi-mTFP; Drosophila Ubi isoform; source: Fwe KO mouse CTLs, transfected with pMAX plasmid, in lysate) MSFAEKITGLLARPNQQDPIGPEQPWYLKYGSRLLGIVAAFFAILFGLWNVFSIITLSVSCLVAGILQMVAGFVVMLLEAPCCFVCFGQVNEIAEKVESKPLYFRAGLYIAMAIPPIILCFGLASLFGSGLIFGTGVVYGMMALGKKASAEDMRAAAQQTFGGNTPAQTNDRAGIVNNAQPFSFTGAVGTDSNV",2 and 4
4,"human Flower isoform 4 with C-terminal mTFP (hFwe4-mTFP) (natural protein, UniProt Q9UGQ2-1 1-172, looked up, human Flower (CACFD1) isoform hFwe4, contains exon 3 and both the YRWL and YARI motifs; 93% identical to mFwe2; also called human isoform Fwe4; source: Fwe KO mouse CTLs, transfected with pMAX plasmid, in lysate) MSSSGGAPGASASSAPPAQEEGMTWWYRWLCRLSGVLGAVSCAISGLFNCITIHPLNIAAGVWMIMNAFILLLCEAPFCCQFIEFANTVAEKVDRLRSWQKAVFYCGMAVVPIVISLTLTTLLGNAIAFATGVLYGLSALGKKGDAISYARIQQQRQQADEEKLAETLEGEL",2 and 4
5,"mouse Flower isoform 1 with C-terminal mTFP (mFwe1-mTFP) (natural protein, UniProt Q8BG21-3 1-106, looked up, Whole isoform cDNA synthesised (BioCAT) and subcloned into pMAX-mTFP; also called Mouse Fwe1; source: Fwe KO mouse CTLs, transfected with pMAX plasmid, in lysate) MSGSGAAGAAAGPAPPAQEEGMTWWYRWLCRLAGVLGAVSCAISGLFNCVTIHPLNIAAGVWMIMNAFILLLCEAPFCCQFVEFANTVAEKVDRLRSWQKAVFYCG",4 and 6 and 2
